This is an account of results in PMC11480844 (2024).

B1: H2-Kb / Ed23 (parent complex)
chain 1: QQKVQQSPESLTVSEGAMASLNCTFSDRSSDNFRWYRQHSGKGLEVLVSIFSDGEKEEGSFTAHLNRASLHVFLHIREPQPSDSALYLCAVRGFWTNKVVFGTGTRLQVLP
chain 2: AQTIHQWPVAEIKAVGSPLSLGCTIKGKSSPNLYWYWQATGGTLQQLFYSITVGQVESVVQLNLSASRPKDDQFILSTEKLLLSHSGFYLCAWSPRQSSYEQYFGPGTRLTVL
chain 3: not shown
chain 4: IQKTPQIQVYSRHPPENGKPNILNCYVTQFHPPHIEIQMLKNGKKIPKVEMSDMSFSKDWSFYILAHTEFTPTETDTYACRVKHDSMAEPKTVYWDRDM
chain 5: SIINFEKL

The test covers variants of B1. The experiment in a line: % of reporter cells activated (NFAT-GFP), raw. Also: test concentration or dose not given here.
Consider chain 5 K7D, for which the ratio to parent came out at 0.155.

Consider chain 5 K7Y, for which the ratio to parent came to 0.654.

Regarding chain 5 K7I, the ratio to parent came to 0.142.

Take chain 5 K7E: the ratio to parent came to 0.0934.

For the variant chain 5 K7Q, the ratio to parent turned out to be 0.132.

For chain 5 F5Q, the ratio to parent was found to be 1.41.

As for chain 5 F5L, the ratio to parent came to 1.17.

For the variant chain 5 I2T, the ratio to parent turned out to be 1.47.

As for chain 5 L8T, the ratio to parent came to 1.02.

chain 5 L8M: the ratio to parent came to 0.785.

On to chain 5 L8D, for which the ratio to parent was determined as 0.909.

On to chain 5 L8E, for which the ratio to parent was found to be 0.833.

In the case of chain 5 L8H, the ratio to parent was determined as 1.25.

Regarding chain 5 L8A, the ratio to parent was 0.692.

For chain 5 L8S, the ratio to parent turned out to be 0.828.

As for chain 5 E6C, the ratio to parent came out at 0.0131.

Turning to chain 5 I3N, the ratio to parent was 1.38.

Regarding chain 5 I3C, the ratio to parent is 1.2.

As to chain 5 I3E, the ratio to parent is 1.21.

In the case of chain 5 I3T, the ratio to parent is 1.22.

Turning to chain 5 I3M, the ratio to parent is 1.24.

For chain 5 I3H, the ratio to parent was 1.55.

chain 5 I3F: the ratio to parent is 0.433.

As for chain 5 I3P, the ratio to parent came out at 1.29.

For chain 5 S1W, the ratio to parent stood at 0.515.

For the variant chain 5 S1M, the ratio to parent turned out to be 0.348.

chain 5 S1Q: the ratio to parent came out at 1.61.

Regarding chain 5 S1E, the ratio to parent worked out at 1.27.

Turning to chain 5 S1L, the ratio to parent came to 0.454.

Regarding chain 5 N4G, the ratio to parent amounted to 0.451.

In the case of chain 5 N4L, the ratio to parent came to 0.631.

For chain 5 N4P, the ratio to parent was found to be 0.71.

chain 5 N4C: the ratio to parent stood at 0.108.

On to chain 5 N4Q, for which the ratio to parent was 0.0702.
